± gives the standard error. For part of these data: This sample holds only a part of the variants without activity.

Sequences and labels used below:
B1: glmS ribozyme (parent)
chain: AUAAAAGCGCCAGAACUACAGAAAUGUAGUUGACGAGGAGGAGGUUUAUCGAAUUUUCGGCGGAUGCCUCCAAA

Holding throughout (details): with glucosamine-6-phosphate
Data set [1] covers variants of B1. The data set can be described thus: kcat; higher = faster cleavage; RNA array. The method, boiled down:
(§1)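 Tiles of sequenced MiSeq chips were imaged over ~14 h at 37 °C. On them, barcoded ribozyme variants had been transcribed in situ by E. coli RNA polymerase and were tracked via a hybridised Cy3 probe while glucosamine-6-phosphate (40 μM to 10 mM) in HEPES/KCl/Mg(OAc)2 buffer flowed in. Per-tile medians, normalised to baseline and to non-cleaving reference variants, were fit to one- or two-exponential decays for kobs, and weighted Michaelis–Menten fits gave kcat and KM.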

The variants in data set [2] derive from B1. The data set can be described thus: KM; higher = weaker cofactor use; RNA array. The method, boiled down: as §1
The variants in data set [3] derive from B1. Put plainly: self-cleavage kobs at 640 uM GlcN6P; higher = faster cleavage; RNA array. In outline:
as §1

The variants in data set [4] derive from B1. Put plainly: self-cleavage kobs at 2500 uM GlcN6P; higher = faster cleavage; RNA array. The method, boiled down: as §1
In data set [5] the parent is B1. Put plainly: self-cleavage kobs at 10000 uM GlcN6P; higher = faster cleavage; RNA array. The method, boiled down:
as §1

Data set [6] covers variants of B1. The data set can be described thus: self-cleavage kobs at 40 uM GlcN6P; higher = faster cleavage; RNA array. The method, boiled down: as §1
The variants in data set [7] derive from B1. The data set can be described thus: self-cleavage kobs at 160 uM GlcN6P; higher = faster cleavage; RNA array. In outline: as §1

For orientation: kcat means the maximal rate divided by the concentration of active sites. The KM is the substrate concentration at which the rate is half of its maximum. As to AUAAAAGCGCCAGAACUACAGAAAUGUAGUUGACGAGGAGGAGGUUUAUCGAAGUUUAGGCGGAUGCCUCCAAA, the kcat in data set [1] worked out at 0.000823 ± 5.9e-05 s⁻¹. For the same variant, the KM in data set [2] worked out at 2870 ± 360 µM. The “self-cleavage kobs at 640 uM GlcN6P” value in data set [3] was 0.00015 ± 2.9e-05 s⁻¹. The “self-cleavage kobs at 2500 uM GlcN6P” value in data set [4] is 0.000361 ± 0.00012 s⁻¹. The “self-cleavage kobs at 10000 uM GlcN6P” value in data set [5] stood at 0.000646 ± 0.00011 s⁻¹.
As for AUAAAAGCGCCUGAACUACAGAAAUGUAGUUGACGAGGAGGAGGUCUAUCGAAUUUUCGGCGGAUGCCUCCAAA, the kcat in data set [1] amounted to 0.0152 ± 0.0021 s⁻¹. In addition, the KM in data set [2] turned out to be 2700 ± 520 µM. Also, in data set [6], the “self-cleavage kobs at 40 uM GlcN6P” value is 0.000227 ± 3.3e-05 s⁻¹. For the same variant, the “self-cleavage kobs at 160 uM GlcN6P” value in data set [7] is 0.00106 ± 0.00025 s⁻¹. The “self-cleavage kobs at 640 uM GlcN6P” value in data set [3] is 0.00223 ± 0.00068 s⁻¹. For the same variant, the “self-cleavage kobs at 2500 uM GlcN6P” value in data set [4] was 0.00688 ± 0.0018 s⁻¹. The “self-cleavage kobs at 10000 uM GlcN6P” value in data set [5] was 0.0123 ± 0.0017 s⁻¹.
With AUAAAAGCGCCAGAACUACAGAAAUGUAGUUGACGAGGAGGAGGUUUAUCGAUUUUUCGGCGGAUCCCUCCAAA, the kcat in data set [1] stood at 0.000389 ± 9.5e-05 s⁻¹. Besides, in data set [2], the KM was found to be 1980 ± 890 µM. Also, the “self-cleavage kobs at 640 uM GlcN6P” value in data set [3] amounted to 0.000103 ± 2.5e-05 s⁻¹. Also, the “self-cleavage kobs at 2500 uM GlcN6P” value in data set [4] stood at 0.000187 ± 4.6e-05 s⁻¹. Besides, the “self-cleavage kobs at 10000 uM GlcN6P” value in data set [5] worked out at 0.000387 ± 0.00011 s⁻¹.
With AUAAAAGCGCCAGAACUACAGAAAUGUAGUUGACGAGGAGGAGGUUUAUUGAAUUUUCAGCGGAUGCCUCCAAA, in data set [1], the kcat was less than 1e-05 s⁻¹. Moreover, in data set [6], the “self-cleavage kobs at 40 uM GlcN6P” value is less than 1e-05 s⁻¹. For the same variant, the “self-cleavage kobs at 160 uM GlcN6P” value in data set [7] was less than 1e-05 s⁻¹. In data set [4], the “self-cleavage kobs at 2500 uM GlcN6P” value was less than 1e-05 s⁻¹. In data set [5], the “self-cleavage kobs at 10000 uM GlcN6P” value was less than 1e-05 s⁻¹.
As for AUAAAAGCGCCGGAAUUACAGAAAUGUAGUUGACGAGGAGGAGGUUUAUCGAAUUUUCGGCGGAUGCCUCCAAA, in data set [1], the kcat worked out at 0.00221 ± 0.00096 s⁻¹. The “self-cleavage kobs at 160 uM GlcN6P” value in data set [7] was 4.12e-05 ± 9.2e-06 s⁻¹. Also, the “self-cleavage kobs at 640 uM GlcN6P” value in data set [3] came out at 0.000179 ± 2.1e-05 s⁻¹. For the same variant, in data set [4], the “self-cleavage kobs at 2500 uM GlcN6P” value is 0.00036 ± 4.1e-05 s⁻¹. In data set [5], the “self-cleavage kobs at 10000 uM GlcN6P” value was 0.00119 ± 0.0001 s⁻¹.
On to AUAAAAGCGCCAGAACUACAGAAAUGUACUUGACGAGGAGGAGGUUUAUCGAAUUUUCGGCGGAGGCCUCCAAA, for which the kcat in data set [1] amounted to 0.00083 ± 0.00013 s⁻¹. Moreover, in data set [2], the KM is 4400 ± 1000 µM. Further, in data set [3], the “self-cleavage kobs at 640 uM GlcN6P” value is 0.000115 ± 2.7e-05 s⁻¹. Further, the “self-cleavage kobs at 2500 uM GlcN6P” value in data set [4] is 0.000279 ± 7.3e-05 s⁻¹. In addition, in data set [5], the “self-cleavage kobs at 10000 uM GlcN6P” value was 0.000591 ± 0.00015 s⁻¹.
For AUAAAAGCGCCAGAACUACAGAAAUGUAGAUGACGAGGAGGAGGUUUAUCGAUUUUUCGGCGGAUGCCUCCAAA, the kcat in data set [1] came to 0.00525 ± 0.00098 s⁻¹. Further, the KM in data set [2] worked out at 1860 ± 480 µM. In data set [6], the “self-cleavage kobs at 40 uM GlcN6P” value turned out to be 0.000128 ± 1.8e-05 s⁻¹. In data set [7], the “self-cleavage kobs at 160 uM GlcN6P” value was 0.00035 ± 7.7e-05 s⁻¹. The “self-cleavage kobs at 640 uM GlcN6P” value in data set [3] was determined as 0.00135 ± 0.00021 s⁻¹. Also, the “self-cleavage kobs at 2500 uM GlcN6P” value in data set [4] amounted to 0.00272 ± 0.00042 s⁻¹. Moreover, the “self-cleavage kobs at 10000 uM GlcN6P” value in data set [5] amounted to 0.00523 ± 0.001 s⁻¹.
